Measurements from patent US20190360025A1.

How the values were obtained:
[1] = target: insulin-like growth factor II (IGF-II), R&D Systems 292-G2-050 (UniProt P01344); assay: t-PLA, buffer; IGF-II 1.00E-08 M
[2] = target: insulin-like growth factor II (IGF-II), R&D Systems 292-G2-050 (UniProt P01344); assay: SPR (Biacore T200), biotinylated antibody on CAP chip, 1:1 fit
[3] = target: insulin-like growth factor II (IGF-II), R&D Systems 292-G2-050 (UniProt P01344); assay: t-PLA, buffer; IGF-II 1.00E-09 M
[4] = target: insulin-like growth factor II (IGF-II), R&D Systems 292-G2-050 (UniProt P01344); assay: c-PLA, buffer; IGF-II 1.00E-07 M
[5] = target: insulin-like growth factor II (IGF-II), R&D Systems 292-G2-050 (UniProt P01344); assay: t-PLA, buffer; IGF-II 1.00E-07 M
[6] = target: insulin-like growth factor II (IGF-II), R&D Systems 292-G2-050 (UniProt P01344); assay: c-PLA, buffer; IGF-II 1.00E-09 M
[7] = target: insulin-like growth factor II (IGF-II), R&D Systems 292-G2-050 (UniProt P01344); assay: c-PLA, buffer; IGF-II 1.00E-10 M
[8] = target: insulin-like growth factor II (IGF-II), R&D Systems 292-G2-050 (UniProt P01344); assay: t-PLA, buffer; IGF-II 1.00E-11 M
[9] = target: insulin-like growth factor II (IGF-II), R&D Systems 292-G2-050 (UniProt P01344); assay: c-PLA, buffer; IGF-II 1.00E-06 M
[10] = target: insulin-like growth factor II (IGF-II), R&D Systems 292-G2-050 (UniProt P01344); assay: SPR, isoaffinity graph
[11] = target: insulin-like growth factor II (IGF-II), R&D Systems 292-G2-050 (UniProt P01344); assay: t-PLA, buffer; IGF-II 1.00E-10 M
[12] = target: insulin-like growth factor II (IGF-II), R&D Systems 292-G2-050 (UniProt P01344); assay: t-PLA, buffer; IGF-II 1.00E-06 M
[13] = target: insulin-like growth factor II (IGF-II), R&D Systems 292-G2-050 (UniProt P01344); assay: c-PLA, buffer; IGF-II 1.00E-08 M
[14] = target: insulin-like growth factor II (IGF-II), R&D Systems 292-G2-050 (UniProt P01344); assay: SPR (Biacore T200), 1:1 global fit
[15] = target: insulin-like growth factor II (IGF-II), R&D Systems 292-G2-050 (UniProt P01344); assay: c-PLA, buffer; IGF-II 1.00E-11 M
[16] = target: insulin-like growth factor II (IGF-II), R&D Systems 292-G2-050 (UniProt P01344); assay: BLI (Octet RED), antibody on protein G sensors, 1:1 global fit
[17] = target: macrophage migration inhibitory factor (MIF), R&D Systems 289-MF-002 (UniProt P14174); assay: SPR (Biacore T200), biotinylated antibody on CAP chip, 1:1 fit
Chain of UniProt P14174 (P14174 whole entry): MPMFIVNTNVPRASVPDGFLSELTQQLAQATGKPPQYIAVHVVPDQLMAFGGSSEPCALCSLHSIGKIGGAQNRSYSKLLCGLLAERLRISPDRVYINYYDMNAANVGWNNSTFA

[18] = target: macrophage migration inhibitory factor (MIF), R&D Systems 289-MF-002 (UniProt P14174); assay: c-PLA, buffer; MIF 1.00E-07 M
[19] = target: macrophage migration inhibitory factor (MIF), R&D Systems 289-MF-002 (UniProt P14174); assay: c-PLA, buffer; MIF 1.00E-11 M
[20] = target: macrophage migration inhibitory factor (MIF), R&D Systems 289-MF-002 (UniProt P14174); assay: c-PLA, buffer; MIF 1.00E-08 M
[21] = target: macrophage migration inhibitory factor (MIF), R&D Systems 289-MF-002 (UniProt P14174); assay: c-PLA, buffer; MIF 1.00E-09 M
[22] = target: macrophage migration inhibitory factor (MIF), R&D Systems 289-MF-002 (UniProt P14174); assay: SPR, isoaffinity graph
[23] = target: macrophage migration inhibitory factor (MIF), R&D Systems 289-MF-002 (UniProt P14174); assay: t-PLA, buffer; MIF 1.00E-07 M
[24] = target: macrophage migration inhibitory factor (MIF), R&D Systems 289-MF-002 (UniProt P14174); assay: SPR (Biacore T200), 1:1 global fit
[25] = target: macrophage migration inhibitory factor (MIF), R&D Systems 289-MF-002 (UniProt P14174); assay: c-PLA, buffer; MIF 3.00E-07 M
[26] = target: macrophage migration inhibitory factor (MIF), R&D Systems 289-MF-002 (UniProt P14174); assay: t-PLA, buffer; MIF 1.00E-08 M
[27] = target: macrophage migration inhibitory factor (MIF), R&D Systems 289-MF-002 (UniProt P14174); assay: t-PLA, buffer; MIF 1.00E-10 M
[28] = target: macrophage migration inhibitory factor (MIF), R&D Systems 289-MF-002 (UniProt P14174); assay: t-PLA, buffer; MIF 3.00E-07 M
[29] = target: macrophage migration inhibitory factor (MIF), R&D Systems 289-MF-002 (UniProt P14174); assay: t-PLA, buffer; MIF 1.00E-11 M
[30] = target: macrophage migration inhibitory factor (MIF), R&D Systems 289-MF-002 (UniProt P14174); assay: BLI (Octet RED), antibody on protein G sensors, 1:1 global fit
[31] = target: macrophage migration inhibitory factor (MIF), R&D Systems 289-MF-002 (UniProt P14174); assay: c-PLA, buffer; MIF 1.00E-10 M
[32] = target: macrophage migration inhibitory factor (MIF), R&D Systems 289-MF-002 (UniProt P14174); assay: t-PLA, buffer; MIF 1.00E-09 M

Chain of UniProt P01344 (P01344 25-91 limits assumed): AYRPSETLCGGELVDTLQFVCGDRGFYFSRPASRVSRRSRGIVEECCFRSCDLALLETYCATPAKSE

Substance: affinity-purified polyclonal anti-IGF-II antibody (R&D Systems AF-292-NA)
- Counts [1]: 1.75e+07
- SBR [1]: 24
- Kd [2]: 0.051 nM
- koff [2]: 2.5e-05 s⁻¹
- kon [2]: 490000 M⁻¹ s⁻¹
- Counts [3]: 641000
- SBR [3]: 0.9
- Counts [4]: 50300
- SBR [4]: 230
- Counts [5]: 5.89e+07
- SBR [5]: 81
- Counts [6]: 527
- SBR [6]: 2.4
- Counts [7]: 215
- SBR [7]: 1
- Counts [8]: 400000
- SBR [8]: 0.5
- Counts [9]: 49700
- SBR [9]: 227
- Kd [10]: > 0.05 nM
- Counts [11]: 145000
- SBR [11]: 0.2
- Counts [12]: 4.77e+07
- SBR [12]: 65
- Counts [13]: 12200
- SBR [13]: 56
- Kd [14]: 0.0511 nM
- koff [14]: 2.49e-05 s⁻¹
- kon [14]: 486000 M⁻¹ s⁻¹
- Counts [15]: 171
- SBR [15]: 0.8
- Kd [16]: 1.17 nM
- koff [16]: 0.000321 s⁻¹
- kon [16]: 274000 M⁻¹ s⁻¹

Substance: affinity-purified polyclonal anti-MIF antibody (R&D Systems AF-289-PB)
- Kd [17]: 0.083 nM
- koff [17]: 9.4e-05 s⁻¹
- kon [17]: 1.1e+06 M⁻¹ s⁻¹
- Counts [18]: 39600
- SBR [18]: 2330
- Counts [19]: 96.6
- SBR [19]: 5.7
- Counts [20]: 29800
- SBR [20]: 1750
- Counts [21]: 12300
- SBR [21]: 724
- Kd [22]: > 0.05 nM
- Counts [23]: 5.2e+07
- SBR [23]: 27
- Kd [24]: 0.0826 nM
- koff [24]: 9.41e-05 s⁻¹
- kon [24]: 1.14e+06 M⁻¹ s⁻¹
- Counts [25]: 36900
- SBR [25]: 2170
- Counts [26]: 3.97e+07
- SBR [26]: 21
- Counts [27]: 1.84e+06
- SBR [27]: 1
- Counts [28]: 4.66e+07
- SBR [28]: 24
- Counts [29]: 681000
- SBR [29]: 0.4
- Kd [30]: 1.75 nM
- koff [30]: 0.000532 s⁻¹
- kon [30]: 304000 M⁻¹ s⁻¹
- Counts [31]: 1020
- SBR [31]: 60
- Counts [32]: 1.43e+07
- SBR [32]: 7
